One test relates to transgenic HHD mice. Description: Immunization of HHD mice with SIM2 peptides, IFN-γ ELISPOT on splenocytes. The format is in vivo, mouse. The note with it: male HHD mice, s.c. peptide in IFA with HBVcore128-140 helper epitope, 10-12 days; P<0.01 for SIM2(87), P<0.001 for other epitopes. As to the method: These nine SIM2 peptides were then tested for their capacity to elicit in vivo CTL responses in transgenic HHD mice. Ten to 12-week old male HHD mice were injected subcutaneously at the basis of the tail with […] of each candidate peptide emulsified in 50 μl of Incomplete Freund's Adjuvant (IFA) and 50 μl PBS in the presence of 150 μg of the I-A^b restricted HBVcore128-140 T helper epitope ([…]; SEQ ID NO: 88). Ten to twelve days post-immunization, spleens were harvested and splenocytes tested for peptide-induced specific release of IFN-γ by ELISPOT. To perform the ELISPOT assays, 96-well Millipore IP plates were coated with 100 μl/well mouse IFN-γ specific capture mAb (AN18, Mabtech Inc., Mariemont, Ohio) at a concentration of 10 μg/ml in PBS overnight at 4° C. Wells were washed with PBS and saturated with RPMI/10% FCS for 1 hour at 37° C. A total of 2.5×10^5 splenocytes were seeded in each well in four replicates and 5×10^4 peptide-loaded (10 μg peptide/ml, for 2 hours at 37° C.) splenocytes pretreated with 50 μg/ml Mitomycin C for 1 hour were added to each well. Plates were incubated for 1-2 days at 37° C. in 5% CO2, washed 5 times with PBS, and then incubated with 1 μg/ml of biotinylated rat anti-mouse IFN-γ mAb (R4-6A2, Mabtech Inc.) for 24 hours at 4° C. or at room temperature for 2 hours. The wells were washed, and incubated with 100 μl of diluted alkaline phosphatase-conjugated streptavidin for 1 hour at room temperature. Spots were developed by adding […] substrates (5-bromo-4,3-indolyl phosphate and nitroblue tetrazolium) and counted using the ELRO4 AID ELISPOT Reader System (Autoimmun Diagnostika GmbH, Straf3berg, Germany).

The target of test [1] is T1, HLA-A2.1 (Homo sapiens, UniProt P04439, D140Y/D185E/D98H/E176V/E277Q/G131W/G231S/I119V/I121R/I166T/I218V/L300P/L318F/N151K/N90K/P208A/P217A/Q86G/Q94H/R138H/R169H/T345S).
T1 construct: stabilize MHC class I molecules from the T2 cell line; endogenous in cells; host or cells: T2 cells
In words: Peptide-HLA-A2.1 dissociation rate on T2 cells with Brefeldin A (SIM2 peptides). The format is cell-based. The following applies: 50 μg/ml peptide, loss of A2.1 expression over time. The method, then: T2 cells were incubated overnight with 50 μg/ml of each candidate peptide at 37° C. in serum-free Iscove's Modified Dulbecco's Medium (IMDM). Cells were then incubated with Brefeldin A (Sigma, St. Louis, Mo.) at 10 μg/ml for 1 hour, washed, and incubated at 37° C. for 0, 2, 4 or 6 hours in the presence of Brefeldin A (50 ng/ml). Cells were then stained with BB7.2 mAb. For each time point, peptide-induced HLA-A2.1 expression was calculated as the difference of the mean fluorescence of peptide-loaded T2 cells and mean fluorescence of negative peptide-loaded T2 cells. The rate of dissociation is reflected by the loss of A2.1 expression over time.

Test [2] has as its target T1, HLA-A2.1. In words: MHC stabilization assay on T2 cells (SIM2 peptides). The format is cell-based. The note with it: 50 μg peptide/250×10^3 cells/ml overnight at 37° C., BB7.2 mAb, flow cytometry. The method, then:
Epitope candidates were evaluated for binding to HLA-A2.1 using an MHC stabilization assay. The assay is based on the ability of suitable peptides to stabilize MHC class I molecules from the T2 cell line. T2 cells lack a functional transporter associated with antigen presentation (TAP) and as a result accumulate empty, unstable class I molecules on the cell surface. These molecules on the cell surface dissociate rapidly unless they are stabilized by the addition of an appropriate binding peptide. In this assay, the flu M1 HLA-A*0201-binding peptide was used as a reference.
Briefly, T2 cells were cultured for 6 hours in serum-free IMDM (ATCC) prior to the addition of candidate peptides at a concentration of 50 μg/250×10^3 cells/ml and incubated overnight at 37° C. Cells were washed, and surface HLA-A2.1 molecules were stained with FITC mouse anti-human HLA-A2 mAb (clone BB7.2, Mouse IgG2b κ, BD Pharmingen) for 1 hour at 4° C. Cells were then washed three times with PBS and analyzed by flow cytometry. A negative control peptide (NEG, see FIG. 6A) and the flu matrix peptide M1 binder peptide (M1, see FIG. 6A) served as controls. The relative binding affinity of a given peptide was calculated as MFI(peptide)/MFI(negative peptide). Only relative binding affinities of 1.5 or higher were considered for further testing.
For orientation: Flow cytometry measures light scatter and fluorescence of single cells or particles in a stream.

As for “FLDSRVTEV (listed as Homo sapiens) [SIM2(244)]”, the “peptide-specific IFN-γ release by splenocytes (ELISPOT), immunogenicity” value (“peptide-specific IFN-γ release” below) in the test on transgenic HHD mice was “higher numbers of splenocytes to release IFN-γ”. Besides, the “peptide-HLA dissociation rate (weak or strong stabilizing epitope)” value (“peptide-HLA dissociation rate” below) with HLA-A2.1 [1] is on record as “strong stabilizing”.
For the substance “KLIFLDSRV (listed as Homo sapiens) [SIM2(241)]”, in the test with transgenic HHD mice, the “peptide-specific IFN-γ release” value is “higher numbers of splenocytes to release IFN-γ”. Also, the “peptide-HLA dissociation rate” value in the test with HLA-A2.1 [1] is listed as “strong stabilizing”.
Take “SIM2(25): SIM2 peptide that binds tightly to A2.1 but was not immunogenic; sequence not printed (KLLPLPSAI)”: the “peptide-specific IFN-γ release” value in the test on transgenic HHD mice is “not immunogenic”. For the same substance, in the test with HLA-A2.1 [2], the “binding to / stabilization of HLA-A2.1 molecules” value is on record as “bind tightly”.
Turning to “SIM2(199): SIM2 peptide able to stabilize HLA-A2.1 molecules, not immunogenic; sequence not printed (SLYDSCYQI)”, in the test on transgenic HHD mice, the “peptide-specific IFN-γ release” value was “not immunogenic”. In the test with HLA-A2.1 [1], the “peptide-HLA dissociation rate” value is listed as “weak stabilizing”. Besides, the “binding to / stabilization of HLA-A2.1 molecules” value in the test with HLA-A2.1 [2] is “bind tightly”.
“SLDLKLIFL (listed as Homo sapiens) [SIM2(237)]”: in the test with transgenic HHD mice, the “peptide-specific IFN-γ release” value is listed as “higher numbers of splenocytes to release IFN-γ”. Further, the “peptide-HLA dissociation rate” value with HLA-A2.1 [1] is on record as “weak stabilizing”.
As to “TLDGFVFVV (listed as Homo sapiens) [SIM2(87)]”, the “peptide-specific IFN-γ release” value with transgenic HHD mice is “higher numbers of splenocytes to release IFN-γ”. Moreover, in the test with HLA-A2.1 [1], the “peptide-HLA dissociation rate” value was “strong stabilizing”.
“YQIVGLVAV (listed as Homo sapiens) [SIM2(205)]”: the “peptide-specific IFN-γ release” value with transgenic HHD mice was “higher numbers of splenocytes to release IFN-γ”. In the test with HLA-A2.1 [1], the “peptide-HLA dissociation rate” value is listed as “strong stabilizing”.
As for “epitope 84: SIM2 peptide able to stabilize HLA-A2.1 molecules, weak stabilizing epitope; sequence not printed (LLQTLDGFV)”, the “peptide-HLA dissociation rate” value with HLA-A2.1 [1] is recorded as “weak stabilizing”.
As for “epitope 430: SIM2 peptide able to stabilize HLA-A2.1 molecules, weak stabilizing epitope; sequence not printed (LLYTPSYSL)”, in the test with HLA-A2.1 [1], the “peptide-HLA dissociation rate” value is on record as “weak stabilizing”.
